# In US20200385685A1, “ROBUST DIFFERENTIATION OF HUMAN PLURIPOTENT STEM CELLS INTO ENDOTHELIAL CELLS USING TRANSCRIPTION FACTOR ETV2” (Children`s Medical Center Corporation, priority 2019, published 2020):
# Like-named read-outs stand apart in the source and are kept apart here.
# Tests used:
# h-MPCs [1] = assay: Conversion of h-MPCs into h-iECs after transfection with modRNA(ETV2), flow cytometry; assay type: cell-based, human; conditions: for percentage of h-iECs at 96 h: above 0.5 μg of modRNA(ETV2) per 10^6 h-iPSCs
# Excerpt: Antibody information is detailed in Table 8.
# h-MPCs [2] = assay: Immunofluorescence staining for ETV2 after transfection with modRNA; assay type: cell-based, human; conditions: 6 h after transfection of h-MPCs
# Description: Cells were seeded in 8-well LAB-TEK chamber slides at a density of 60,000 cell s/cm^2. After confluency, cells were fixed in 4% paraformaldehyde (PFA), permeabilized with 0.1% Triton X-100 in PBS, and then blocked for 30 min in 5% horse serum (Vector, Cat No. 5-2000). Subsequently, cells were incubated with primary antibodies for 30 min at room temperature (RT). Cells were washed 3 times with PBS and then incubated with secondary antibodies for 30 min at RT. Cells were washed 3 times with PBS and stained with 0.5 μg/mL DAPI for 5 min. Slides were mounted with DAKO fluorescence mounting medium (Agilent, Cat No. 5302380-2). Antibody information is detailed in Table 8, above.
# Description for h-iPSCs: S1-modETV2 protocol (4 days)—h-iPSCs were dissociated into single cells with TrypLE select and plated on Matrigel at a density of 60,000 cells/cm^2 in mTeSR1 medium with 10 μM Y27632. After 24 h, the medium was changed to S1 medium consisting of basal medium supplemented with 6 μM CHIR99021. Basal medium was prepared by adding 1× GlutaMax supplement and 60 μg/mL L-Ascorbic acid into Advanced DMEM/F12. After 48 h, h-MPCs were dissociated into single cells and then transfected with modRNA(ETV2) by either electroporation or lipofection. For electroporation, 2 million h-MPCs were resuspended in 100 μL buffer mixed with 1 μg modETV2. Electroporated cells were then seeded on a 60-mm Matrigel-coated dish in modETV2 medium consisting of basal medium supplemented with 50 ng/mL VEGF-A, 50 ng/mL FGF-2, 10 ng/mL EGF and 10 μM SB431542. For lipofection, 3 μL lipofectamine RNAiMax (ThermoFisher, Cat No. 13778030) were diluted in 50 μL Opti-MEM (ThermoFisher, Cat No. 31985062) and 0.6 μg modRNA(ETV2) diluted in another 50 μL Opti-MEM. Lipofectamine and modRNA(ETV2) were then mixed and incubated for 15 min at room temperature. The lipid/RNA complex was added to 0.5 million h-MPCs in modETV2 medium and transfected cells were then seeded on a 35-mm Matrigel-coated dish. Upon transfection (electroporation or lipofection), cells were cultured for another 48 h before purification. Medium was changed every day throughout this protocol (Table 2). modRNA encoding GFP (TriLink, Cat No. L-7601) at a concentration of 0.2 μg per million h-MPCs served as negative control.
# S1-S2, method #1 (4 days)—h-iPSCs were dissociated into single cells with TrypLE select and plated on Matrigel at a density of 60,000 cells/cm^2 in mTeSR1 medium with 10 μM Y27632. […]
# Cells were dissociated into single-cell suspensions using TrypLE and washed with PBS supplemented with 100BSA and 0.2 mM EDTA. In indicated experiments, cells were stained with flow cytometry antibodies and analyzed using a Guava easyCyte 6HT/2L flow cytometer (Millipore Corporation, Billerica, Mass.) and FlowJo software (Tree Star Inc., Ashland, Oreg.). […]
molecule,measurement,setting,value
VEGF,proportion of ETV2+ cells and subsequent conversion to CD31+ h-iECs,"h-iPSCs; S1-S2 protocol, beyond 50 ng/mL",failed to further increase
Cc1cc(C)c(/C=C2\C(=O)Nc3ccccc32)[nH]1 [SU5416],h-iECs at 96 h,h-iPSCs; S1-S2 protocol,< 2%
same,h-iECs at 96 h,h-iPSCs; S1-modETV2 protocol,94%
"modRNA(ETV2): Chemically modified mRNA encoding ETV2, transcript variant 1 (NM_014209.3), SEQ ID NO: 1, generated by TriLink BioTechnologies (nucleic acid, listed as Homo sapiens, chemically modified nucleosides) ATGGACCTGTGGAACTGGGATGAGGCATCCCCACAGGAAGTGCCTCCAGGGAACAAGCTGGCAGGGCTTGAAGGAGCCAAATTAGGCTTCTGTTTCCCTGATCTGGCACTCCAAGGGGACACGCCGACAGCGACAGCAGAGACATGCTGGAAAGGTACAAGCTCATCCCTGGCAAGCTTCCCACAGCTGGACTGGGGCTCCGCGTTACTGCACCCAGAAGTTCCATGGGGGGCGGAGCCCGACTCTCAGGCTCTTCCGTGGTCCGGGGACTGGACAGACATGGCGTGCACAGCCTGGGACTCTTGGAGCGGCGCCTCGCAGACCCTGGGCCCCGCCCCTCTCGGCCCGGGCCCCATCCCCGCCGCCGGCTCCGAAGGCGCCGCGGGCCAGAACTGCGTCCCCGTGGCGGGAGAGGCCACCTCGTGGTCGCGCGCCCAGGCCGCCGGGAGCAACACCAGCTGGGACTGTTCTGTGGGGCCCGACGGCGATACCTACTGGGGCAGTGGCCTGGGCGGGGAGCCGCGCACGGACTGTACCATTTCGTGGGGCGGGCCCGCGGGCCCGGACTGTACCACCTCCTGGAACCCGGGGCTGCATGCGGGTGGCACCACCTCTTTGAAGCGGTACCAGAGCTCAGCTCTCACCGTTTGCTCCGAACCGAGCCCGCAGTCGGACCGTGCCAGTTTGGCTCGATGCCCCAAAACTAACCACCGAGGTCCCATTCAGCTGTGGCAGTTCCTCCTGGAGCTGCTCCACGACGGGGCGCGTAGCAGCTGCATCCGTTGGACTGGCAACAGCCGCGAGTTCCAGCTGTGCGACCCCAAAGAGGTGGCTCGGCTGTGGGGCGAGCGCAAGAGAAAGCCGGGCATGAATTACGAGAAGCTGAGCCGGGGCCTTCGCTACTACTATCGCCGCGACATCGTGCGCAAGAGCGGGGGGCGAAAGTACACGTACCGCTTCGGGGGCCGCGTGCCCAGCCTAGCCTATCCGGACTGTGCGGGAGGCGGACGGGGAGCAGAGACACAATAA",cells that were endothelial (VE-Cadherin+/CD31+ cells),h-MPCs [1]; 48 h after transfection of h-MPCs,95%
same,percentage of h-iECs at 96 h,h-MPCs [1]; electroporation,95%
same,percentage of h-iECs at 96 h,h-MPCs [1]; lipofection,75%
same,cells expressing ETV2,h-MPCs [2],> 85%
